Consider 1 molecule from PMC3764444, “Involvement of A20 in the molecular switch that activates the non-canonical NF-кB pathway” (Scientific Reports, 2013).

The target of this experiment is T1, recombinant cIAP1 protein (human, UniProt Q13490 1-618).
T1 construct: the whole cIAP1, human cDNA; cloned in pGEX-6P-1; also called released from GST-cIAP1 (GST-cIAP); source: E. coli DH5α, purified (Glutathione Sepharose 4B), released from the beads with 3C protease (Turbo3C)
The experiment is described as follows: pull-down; GST pull-down: 2 μg polyubiquitin chains or 0.5 μg cIAP1 with 0.5 μg GST or GST-ZnF5-7 proteins and Glutathione Sepharose 4B in TNE buffer (20 mM Tris-HCl pH 7.5, 130 mM NaCl, 1% Triton X-100, 1 mM EDTA) with 0.5 mM DTT and 0.1 mg/ml BSA, 3 hr; immunoblot. The conditions noted are these: both partners purified.

T1 sequence (Q13490 whole entry): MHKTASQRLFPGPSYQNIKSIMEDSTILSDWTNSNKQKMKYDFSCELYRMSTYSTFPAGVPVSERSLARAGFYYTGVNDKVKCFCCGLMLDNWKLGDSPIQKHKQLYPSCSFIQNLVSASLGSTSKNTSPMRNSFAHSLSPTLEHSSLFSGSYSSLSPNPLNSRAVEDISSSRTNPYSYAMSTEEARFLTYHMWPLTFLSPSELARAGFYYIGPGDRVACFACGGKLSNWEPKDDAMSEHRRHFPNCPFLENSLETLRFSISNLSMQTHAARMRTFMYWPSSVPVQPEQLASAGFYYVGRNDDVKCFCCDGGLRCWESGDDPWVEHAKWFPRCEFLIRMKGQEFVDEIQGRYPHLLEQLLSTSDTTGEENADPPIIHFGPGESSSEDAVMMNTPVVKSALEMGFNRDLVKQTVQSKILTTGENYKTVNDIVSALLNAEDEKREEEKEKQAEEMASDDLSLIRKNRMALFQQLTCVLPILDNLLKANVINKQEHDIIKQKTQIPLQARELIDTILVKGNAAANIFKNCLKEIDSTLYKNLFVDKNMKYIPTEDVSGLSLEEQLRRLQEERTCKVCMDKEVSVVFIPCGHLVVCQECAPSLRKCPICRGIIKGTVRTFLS

B1: GST-A20-ZnF5-7 (domain or fragment, human, UniProt P21580 647-790, looked up)
chain: TASRFQNTIPCLGRECGTLGSTMFEGYCQKCFIEAQNQRFHEAKRTEEQLRSSQRRDVPRTTQSTSRPKCARASCKNILACRSEELCMECQHPNQRMGPGAHRGEPAPEDPPKQRCRAPACDHFGNAKCNGYCNECFQFKQMYG
notes: A20, human, fragment aa 647-790 encompassing ZnF5 to ZnF7; cloned in pGEX-6P-1; also called GST-ZnF5-7; source: E. coli DH5α, purified (Glutathione Sepharose 4B), dialyzed with PBS
As to B1, the binding result is recorded as “binds”.
